T1: CydE (GbsR-type regulator) (Alishewanella sp. WH16-1, UniProt A0ABQ3KUT0 1-187)
T1 sequence: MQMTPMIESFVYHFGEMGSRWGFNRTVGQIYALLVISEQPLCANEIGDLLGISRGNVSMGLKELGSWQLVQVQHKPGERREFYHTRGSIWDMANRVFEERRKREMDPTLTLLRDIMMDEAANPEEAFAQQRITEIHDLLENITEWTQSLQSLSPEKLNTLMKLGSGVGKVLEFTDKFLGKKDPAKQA


Biological target: T1, CydE (GbsR-type regulator)
Test: EMSA; ethidium bromide stain; EMSA: 20 uL with 2 uL 10x binding buffer (listed as 10 mM Tris pH 7.5, 10 mM EDTA, 1 mM KCl, 1 mM DTT, 50% glycerol, 0.1 mg/mL BSA), 37 C 30 min, 8% native PAGE in 0.5x TGE pH 8.0; footprinting: same mix, DNase I 10 min at room temperature
Details: protein: recombinant; tags: His6 (pET28a); chain copies: 2; (synthesized)

Binder	binding result
CydE binding site 1 (dsDNA) DNA 1: TATTTCAGAAATTTCTGAAAGTTCA DNA 2: TGAACTTTCAGAAATTTCTGAAATA	binds
CydE binding site 2 (dsDNA) DNA 1: GGGATGCGCATATGCAAAT DNA 2: ATTTGCATATGCGCATCCC	binds
